Substrate: COC1=C(OC)C(=O)C(CC=C(C)C)=C(C)C1=O
Assay: PRODH steady-state kinetics
Format: biochemical, Rhodobacter capsulatus
Details: 200 mM proline fixed, 23 °C, 20 mM Tris pH 8.0, 10% glycerol

B1: RcPutA (Rhodobacter capsulatus SB 1003) (protein)
chain: MTDLSALGPKAKFAPEAEVLQALVAQAALPQPQLDRIAARGADLVARIRAEAKPSLMEHFLAQYGLSTREGVALMCLAEAMLRVPDTATIDALIEDKIAPSDWGKHLGTAASSLVNASTWALMLTGKVLDDGAGGIAGTLRGAMRRLGEPVIRAAVGQAMREMGRQFVLGETIEKALERAEKREAEGYTFSYDMLGEAALTAADAERYRLAYAQAITAIGKAATRGSIAANPGISIKLSALHPRYEVAQEARVMAELVPVVRDLARAAARAGIALHIDAEEQDRLALSLRVMAAVIADPETAGWEGFGAVVQAYGKRAGAAIDALAAMARAAGRRINIRLVKGAYWDAEMKRAQVEGHPGFPLFTSKTGTDVAYICLAAKLFGLNDCIYPQFATHNAHTVAAVLEMAAGRPFEFQRLHGMGARLHDIVLRETGGRCRIYAPVGAHRDLLAYLVRRLLENGANSSFVNQIVNESVPPAEVAACPFAALPTARAPRGLLAPADLFGAGRVNAQGFDLSDPEVLARIEAARDVTLPDAAPIVAGPVSGTLRPVRNPATGAVVAQVTEADAATVALALDAAQVWSAPAATRAAVLCRAADLYEENFGPIFAALAQEAGKTLGDAVSELREAVDFLRYYAAEGAADTRPPRGAVVAISPWNFPLAIFTGQVAAALMAGNAVLAKPAEQTPIIAALAVRLLHQAGVPETALQLLPGDGPTVGAALTRDPRVAGVVFTGSTETAQIIARAMAAHLAPGTPLIAETGGLNAMVVDSTALPEQAVRDVVASAFRSAGQRCSALRCLYVQDDIAPHLIGMLKGAMEELVSGDPARLSTDVGPVIDAEAKAGIETYLAANKARILHRSTAPEGGHFVAPALLQVGGIADLEREIFGPVLHLATFAAEDLPAVIAAINARGYGLTFGLHSRIDARVETVAETIRAGNIYVNRNQIGAVVGSQPFGGEGLSGTGPKAGGPLYLNRFYAPEPVVAVGGWTEAATPILPEARETQLDEIFLPGPTGELNRLTRHQRGPILCLGPGAEAASAQAAAVVALGGQAVQASGAVSPKALETLTPLAGVLWWGAAEMGRAYAQALAVRPGPLVPLITAKPDLAHVAHERHLCVDTTAAGGNAALLAG
For B1, the Km was 94 ± 19 µM and the kcat was 2.0 ± 0.1 s⁻¹.

— PMC4159212
